Read-outs that look alike come from different tables or passages of the source.
Columns and labels:
Experiment in all cases: EMSA
[1] = target: T1, Spalt major (Salm) (UniProt P39770 1-1365)
T1 sequence: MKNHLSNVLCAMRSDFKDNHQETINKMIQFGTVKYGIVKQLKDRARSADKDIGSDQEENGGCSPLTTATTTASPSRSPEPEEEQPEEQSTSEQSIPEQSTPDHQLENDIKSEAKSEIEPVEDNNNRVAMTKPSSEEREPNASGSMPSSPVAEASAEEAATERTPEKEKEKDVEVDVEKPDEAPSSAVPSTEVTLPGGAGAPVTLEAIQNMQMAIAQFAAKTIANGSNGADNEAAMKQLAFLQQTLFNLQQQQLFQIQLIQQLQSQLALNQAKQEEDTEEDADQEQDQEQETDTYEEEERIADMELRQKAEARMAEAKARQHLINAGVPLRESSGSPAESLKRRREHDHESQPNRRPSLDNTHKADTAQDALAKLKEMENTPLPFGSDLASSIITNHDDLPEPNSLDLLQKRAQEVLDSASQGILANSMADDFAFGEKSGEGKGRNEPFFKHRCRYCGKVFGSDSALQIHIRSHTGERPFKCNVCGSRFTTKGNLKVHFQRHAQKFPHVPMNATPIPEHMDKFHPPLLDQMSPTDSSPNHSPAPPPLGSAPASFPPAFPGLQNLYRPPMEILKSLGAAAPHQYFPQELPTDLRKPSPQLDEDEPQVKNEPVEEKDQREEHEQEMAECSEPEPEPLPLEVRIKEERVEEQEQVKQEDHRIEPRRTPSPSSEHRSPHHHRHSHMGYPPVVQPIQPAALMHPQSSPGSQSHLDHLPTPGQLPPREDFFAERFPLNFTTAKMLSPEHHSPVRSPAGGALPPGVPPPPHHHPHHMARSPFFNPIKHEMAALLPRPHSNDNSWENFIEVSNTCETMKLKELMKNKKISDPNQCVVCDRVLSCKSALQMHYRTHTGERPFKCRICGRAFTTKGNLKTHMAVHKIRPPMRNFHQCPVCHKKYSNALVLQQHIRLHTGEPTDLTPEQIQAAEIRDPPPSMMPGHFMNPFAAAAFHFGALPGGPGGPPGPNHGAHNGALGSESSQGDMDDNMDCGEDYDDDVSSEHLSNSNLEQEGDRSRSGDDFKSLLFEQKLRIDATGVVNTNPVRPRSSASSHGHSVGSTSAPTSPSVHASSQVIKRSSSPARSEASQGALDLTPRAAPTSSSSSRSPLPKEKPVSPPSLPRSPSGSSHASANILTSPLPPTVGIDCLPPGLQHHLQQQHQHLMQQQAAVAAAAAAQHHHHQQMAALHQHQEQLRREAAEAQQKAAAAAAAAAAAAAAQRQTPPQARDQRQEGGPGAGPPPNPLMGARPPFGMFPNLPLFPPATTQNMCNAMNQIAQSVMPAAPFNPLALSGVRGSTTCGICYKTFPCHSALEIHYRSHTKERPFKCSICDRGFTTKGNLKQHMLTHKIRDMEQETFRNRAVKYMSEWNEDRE

[2] = target: T1, Spalt major (Salm); remark: listed apart in the source
[3] = target: T1, Spalt major (Salm); remark: listed apart in the source

B1: 60salC (5' half, conserved) (dsDNA)
DNA 1: GCAAAAAGATATCAAAAATGTCGCATATT
DNA 2: AATATGCGACATTTTTGATATCTTTTTGC
- binding result [1]: binds

B2: 60sal (dsDNA)
DNA 1: GCAAAAAGATATCAAAAATGTCGCATATTAATAACGCTCTCCATTGGCGGACACAGGAC
DNA 2: GTCCTGTGTCCGCCAATGGAGAGCGTTATTAATATGCGACATTTTTGATATCTTTTTGC
- binding result [2]: binds

B3: 60salNC (3' half, non-conserved) (dsDNA)
DNA 1: TTAATAACGCTCTCCATTGGCGGACACAGGAC
DNA 2: GTCCTGTGTCCGCCAATGGAGAGCGTTATTAA
- binding result [3]: binds
